The target in the data set is N-tGLI1 (N-terminal truncated GLI1) (UniProt P08151-2 1-390). As to the kind of experiment: EMSA; no drug; 5X binding buffer as printed: 50 mM Tris pH 7.5, 50 mM NaCl, 200 mM KCl, 5 mM MgCl2, 10 mM EDTA, 5 mM DTT, 250 ug/mL BSA, 25% glycerol; 50 ng/uL poly dI-dC; ~600 ng protein, 5 pmol probe in 20 uL; 20 min on ice (drug tests: 30 min preincubation on ice for GLI1 or at RT for N-tGLI1, then 30 min with probe); 6% TBE gel. As to conditions: protein: recombinant; tags: MBP tag cleaved with HRV 3C protease; label: 5' 6-FAM on both strands; blunt.
Sequence of N-tGLI1 (N-terminal truncated GLI1) (P08151 other isoform, or with tags, fused parts or gaps): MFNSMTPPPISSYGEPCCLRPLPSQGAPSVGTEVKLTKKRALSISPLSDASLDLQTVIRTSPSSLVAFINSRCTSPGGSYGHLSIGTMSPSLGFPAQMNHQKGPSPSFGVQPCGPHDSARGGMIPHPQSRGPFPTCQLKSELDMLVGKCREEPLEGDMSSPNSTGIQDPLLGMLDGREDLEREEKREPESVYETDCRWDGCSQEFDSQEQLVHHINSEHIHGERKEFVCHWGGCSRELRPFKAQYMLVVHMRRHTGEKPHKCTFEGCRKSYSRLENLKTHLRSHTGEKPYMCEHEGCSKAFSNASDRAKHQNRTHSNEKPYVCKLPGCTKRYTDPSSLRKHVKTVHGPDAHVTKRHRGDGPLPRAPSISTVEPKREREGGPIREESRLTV

B1: GLI1/tGLI1 consensus probe (dsDNA)
DNA 1: CGAAGAGACCACCCAGGTAGCT
DNA 2: AGCTACCTGGGTGGTCTCTTCG
With B1, the binding result is given as “binds”.

The values above are taken from article PMC9454738, “An FDA-Approved Antifungal, Ketoconazole, and Its Novel Derivative Suppress tGLI1-Mediated Breast Cancer Brain Metastasis by Inhibiting the DNA-Binding Activity of Brain Metastasis-Promoting Transcrip”.
